In US20060275823A1:

Molecular target: GG (GST-ICS linker-GFP model substrate for ICE) [GST: P08515]
Experiment: cell-based or functional assay

B1: LEPB (peptide)
peptide: KARKEAELAAATAEQ
IC50 of inhibition of the cleavage of GG by ICE: 50 to 100 µM
